The values below are quoted from earlier work in patent US20050181456A1, “Methods for determining the amount of peptide YY in blood” (Nastech Pharmaceutical Company Inc., priority 2004, published 2005).

The target of this series is T1, Y2 receptor (Homo sapiens, UniProt P49146).
T1 sequence (P49146 1-381): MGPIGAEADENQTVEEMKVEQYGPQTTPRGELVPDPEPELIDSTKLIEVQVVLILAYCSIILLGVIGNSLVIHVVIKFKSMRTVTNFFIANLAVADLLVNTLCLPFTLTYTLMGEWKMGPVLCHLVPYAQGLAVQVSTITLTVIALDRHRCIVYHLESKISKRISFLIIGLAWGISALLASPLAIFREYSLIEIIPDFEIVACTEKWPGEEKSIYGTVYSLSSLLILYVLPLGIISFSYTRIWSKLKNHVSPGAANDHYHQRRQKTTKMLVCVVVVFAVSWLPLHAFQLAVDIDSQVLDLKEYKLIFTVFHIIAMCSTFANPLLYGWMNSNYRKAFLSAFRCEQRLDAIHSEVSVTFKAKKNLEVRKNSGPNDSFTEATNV
Particulars: cited from earlier work.

In the case of “PYY fragment having only residues 22-36: PYY fragment having only residues 22-36 (ASLRHYLNLVTRQRY; listed as Homo sapiens)”, the “binding to the Y2 receptor” value was “will still bind”.
